{
  "source": "paper PMC3115801",
  "about": "(The Journal of Cell Biology, 2011)",
  "biological_target": "T1, bacterially purified Epac1 (amino acids 149–882) (human, UniProt O95398-3 149-881)",
  "T1 sequence (looked up)": "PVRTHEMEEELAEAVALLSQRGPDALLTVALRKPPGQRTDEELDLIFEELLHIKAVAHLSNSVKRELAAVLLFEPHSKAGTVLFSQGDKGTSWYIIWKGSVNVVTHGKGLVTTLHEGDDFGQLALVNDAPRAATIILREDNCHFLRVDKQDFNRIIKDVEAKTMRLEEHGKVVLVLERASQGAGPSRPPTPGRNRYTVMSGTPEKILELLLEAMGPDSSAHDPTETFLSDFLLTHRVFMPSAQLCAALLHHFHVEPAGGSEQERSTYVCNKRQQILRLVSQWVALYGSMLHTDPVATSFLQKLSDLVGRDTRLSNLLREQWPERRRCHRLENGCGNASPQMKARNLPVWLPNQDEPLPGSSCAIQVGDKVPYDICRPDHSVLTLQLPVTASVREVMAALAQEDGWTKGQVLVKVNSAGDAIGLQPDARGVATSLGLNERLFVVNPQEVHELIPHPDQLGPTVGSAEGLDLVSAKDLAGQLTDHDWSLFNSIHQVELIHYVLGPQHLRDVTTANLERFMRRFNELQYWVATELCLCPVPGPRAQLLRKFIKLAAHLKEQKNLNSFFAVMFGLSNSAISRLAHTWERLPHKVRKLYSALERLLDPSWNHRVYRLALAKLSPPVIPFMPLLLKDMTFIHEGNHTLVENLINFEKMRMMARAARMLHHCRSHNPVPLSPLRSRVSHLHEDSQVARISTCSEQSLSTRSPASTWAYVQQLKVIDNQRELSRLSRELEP",
  "test": "pull-down",
  "data": [
    {"binder": "GST-tagged bacterially purified ZNF domain of RanBP2 (domain or fragment, UniProt P49792 1341-1819, looked up) NLNFEFQVAKKEGSWWHCNSCSLKNASTAKKCVSCQNLNPSNKELVGPPLAETVFTPKTSPENVQDRFALVTPKKEGHWDCSICLVRNEPTVSRCIACQNTKSANKSGSSFVHQASFKFGQGDLPKPINSDFRSVFSTKEGQWDCSACLVQNEGSSTKCAACQNPRKQSLPATSIPTPASFKFGTSETSKTLKSGFEDMFAKKEGQWDCSSCLVRNEANATRCVACQNPDKPSPSTSVPAPASFKFGTSETSKAPKSGFEGMFTKKEGQWDCSVCLVRNEASATKCIACQNPGKQNQTTSAVSTPASSETSKAPKSGFEGMFTKKEGQWDCSVCLVRNEASATKCIACQNPGKQNQTTSAVSTPASSETSKAPKSGFEGMFTKKEGQWDCSVCLVRNEASATKCIACQCPSKQNQTTAISTPASSEISKAPKSGFEGMFIRKGQWDCSVCCVQNESSSLKCVACDASKPTHKPIAEAPS", "values": [
      {"measurement": "binding result", "value": "binds"}
    ]}
  ]
}
